Here are results for 1 substance from publication PMC8999711.

The experiment has as its target ActR-IIB extracellular domain (type II receptor ectodomain) (UniProt Q13705). Nature of the experiment: SPR; Reichert4SPR; biotinylated receptor ectodomains immobilised on a streptavidin-coated CMD200 chip (350-500 RU); BMP2 ligands as analytes, six concentrations from 160 nM (log 2 dilution series); 25 °C; 10 mM HEPES pH 7.4, 500 mM NaCl, 3.4 mM EDTA, 0.005% Tween-20; 10 μL/min; 1:1 Langmuir global fit; apparent KD, mean of two independent experiments.
Sequence of UniProt Q13705 (Q13705 19-137): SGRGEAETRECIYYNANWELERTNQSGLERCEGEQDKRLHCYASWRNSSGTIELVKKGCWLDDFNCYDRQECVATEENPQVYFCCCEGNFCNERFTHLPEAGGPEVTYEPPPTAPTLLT

Turning to “BMP2 Azide (BMP2 variant with H-L-Lys(EO-N3)-OH at position 83 of each chain) (ligand)”, the Kd came to 11.6 nM.
